Experimental data from patent US20070020327A1.
Where two headings read alike, the source gives them in different places. Each block holds one binder with its values, some of them ahead of it.

Columns and labels:
HLA-A*0201 (human) [1] = test: competition with 125I-labelled standard peptide for purified HLA, gel filtration; ratio = IC50 standard / IC50 test peptide
HLA-A*0201 (human) [2] = test: inhibition of 125I probe peptide binding to purified HLA, gel filtration; ratio = IC50 standard/IC50 test
HLA-A*0201 (human) [3] = test: competition binding to purified HLA, 125I-labelled standard peptide, gel filtration; ratio = IC50 standard / IC50 test peptide
HLA-A*0201 (human) [4] = test: competition with 125I-labelled standard peptide 941.01 for purified HLA-A*0201, gel filtration
HLA-A*0206 (human) = test: competition with 125I-labelled standard peptide 941.01 for purified HLA, gel filtration; conditions: scale: ratio
HLA-A*0201 (human) [5] = test: as above; conditions: scale: ratio
HLA-A*0201 (human) [6] = test: competition for purified HLA with 125I-labelled standard peptide 941.01 [..] as competitor, gel filtration; conditions: scale: ratio
HLA-A*0301 (human) = test: competition with 125I-labelled standard peptide for purified HLA, gel filtration
[7] = remark: other sources report otherwise

B1: PSM peptide …, position 218, 9 amino acids (peptide)
peptide: QLAGAKGVI
modifications: not checked
binding affinity ratio (ratio to standard peptide) (HLA-A*0201 (human) [1]): 0.0001

B2: … (PAP, position 11) (peptide)
peptide: AASLSLGFL
modifications: not checked
binding affinity ratio (HLA-A*0201 (human) [2]): 0.0002

B4: PSA peptide …, position 87, 10 amino acids (peptide)
peptide: QVSHSFPHPL
modifications: not checked
binding affinity ratio (ratio to standard peptide) (HLA-A*0201 (human) [1]): 0.0001

B8: Kallikrein (hK2) peptide … (position 225) (peptide)
peptide: GITSWGPEPCA
modifications: not checked
binding affinity ratio (HLA-A*0206 (human); [7]): 0.0001 | binding affinity ratio (HLA-A*0201 (human) [5]; [7]): 0.0009

B10: … (Kallikrein position 52 / PSA position 48, 9-mer) (peptide)
peptide: GVLVHPQWV
modifications: not checked
binding affinity ratio (HLA-A*0201 (human) [6]): 0.0003

B13: … (PAP, position 10) (peptide)
peptide: RAASLSLGFL
modifications: not checked
binding affinity ratio (IC50 of standard peptide / IC50 of test peptide) (HLA-A*0201 (human) [4]): 0.0002

B15: PSA peptide …, position 182, 11 amino acids (peptide)
peptide: QVHPQKVTKFM
modifications: not checked
binding affinity ratio (ratio to standard peptide) (HLA-A*0201 (human) [1]): 0.0001

B17: PSM peptide …, position 218, 10 amino acids (peptide)
peptide: QLAGAKGVIL
modifications: not checked
binding affinity ratio (ratio to standard peptide) (HLA-A*0201 (human) [1]): 0.0006

B18: PAP peptide …, position 72, 10 amino acids (peptide)
peptide: QLGMEQHYEL
modifications: not checked
binding affinity ratio (ratio to standard peptide) (HLA-A*0201 (human) [1]): 0.0003

B21: Kallikrein (hK2) peptide …, position 72, 9 amino acids (peptide)
peptide: QVWLGRHNL
modifications: not checked
binding affinity ratio (ratio to standard peptide) (HLA-A*0201 (human) [1]): 0.0001

B23: DLPTQEPA (PSA, position 136, 8 amino acids) (peptide)
peptide: DLPTQEPA
modifications: not checked
binding affinity ratio (HLA-A*0201 (human) [3]): 0.0001

B25: PAP peptide …, position 276, 9 amino acids (peptide)
peptide: QIPSYKKLI
modifications: not checked
binding affinity ratio (ratio to standard peptide) (HLA-A*0201 (human) [1]): 0.0002

B26: … (PAP, position 121) (peptide)
peptide: AALFPPEGV
modifications: not checked
binding affinity ratio (HLA-A*0201 (human) [2]): 0.0002

B28: PSM peptide …, position 740, 10 amino acids (peptide)
peptide: QAAAETLSEV
modifications: not checked
binding affinity ratio (ratio to standard peptide) (HLA-A*0201 (human) [1]): 0.0006

B29: SIEPEEFL (PSA, position 155) (peptide)
peptide: SIEPEEFL
modifications: not checked
binding affinity ratio (IC50 of standard peptide / IC50 of test peptide) (HLA-A*0201 (human) [4]): 0.0001

B32: PAP peptide …, position 101, 9 amino acids (peptide)
peptide: QVYIRSTDV
modifications: not checked
binding affinity ratio (ratio to standard peptide) (HLA-A*0201 (human) [1]): 0.0002

B33: PSM 528 peptide … (peptide)
peptide: LGIASGRAR
modifications: not checked
binding affinity ratio (IC50 of standard peptide / IC50 of test peptide) (HLA-A*0301 (human)): 0.0006

B34: ALPERPSL (PSA, position 231) (peptide)
peptide: ALPERPSL
modifications: not checked
binding affinity ratio (HLA-A*0201 (human) [2]): 0.0002

B40: PSA peptide …, position 35, 10 amino acids (peptide)
peptide: QVLVASRGRA
modifications: not checked
binding affinity ratio (ratio to standard peptide) (HLA-A*0201 (human) [1]): 0.0001

B43: … (Kallikrein, position 3, 10 amino acids) (peptide)
peptide: DLVLSIALSV
modifications: not checked
binding affinity ratio (HLA-A*0201 (human) [3]; [7]): 0.001

B44: PSM peptide …, position 578, 10 amino acids (peptide)
peptide: QVRGGMVFEL
modifications: not checked
binding affinity ratio (ratio to standard peptide) (HLA-A*0201 (human) [1]): 0.0001

B45: SIEPEEFL (Kallikrein, position 159) (peptide)
peptide: SIEPEEFL
modifications: not checked
binding affinity ratio (IC50 of standard peptide / IC50 of test peptide) (HLA-A*0201 (human) [4]): 0.0001

B47: Kallikrein (hK2) peptide …, position 142, 9 amino acids (peptide)
peptide: PTQEPALGT
modifications: not checked
binding affinity ratio (ratio to standard peptide) (HLA-A*0201 (human) [1]): 0.0001

B51: Kallikrein (hK2) peptide … (position 16) (peptide)
peptide: GAVPLIQSRIV
modifications: not checked
binding affinity ratio (HLA-A*0206 (human)): 0.0003 | binding affinity ratio (HLA-A*0201 (human) [5]): 0.0001

B53: PSA peptide …, position 35, 11 amino acids (peptide)
peptide: QVLVASRGRAV
modifications: not checked
binding affinity ratio (ratio to standard peptide) (HLA-A*0201 (human) [1]): 0.0001

B55: DLVLSIAL (Kallikrein, position 3, 8 amino acids) (peptide)
peptide: DLVLSIAL
modifications: not checked
binding affinity ratio (HLA-A*0201 (human) [3]): 0.0001

B58: PAP 81 peptide … (peptide)
peptide: LGEYIRKRY
modifications: not checked
binding affinity ratio (IC50 of standard peptide / IC50 of test peptide) (HLA-A*0301 (human); [7]): 0.0002

B59: PAP 81 peptide … (peptide)
peptide: LGEYIRKRYR
modifications: not checked
binding affinity ratio (IC50 of standard peptide / IC50 of test peptide) (HLA-A*0301 (human)): 0.0003

B60: PSA peptide …, position 138, 9 amino acids (peptide)
peptide: PTQEPALGT
modifications: not checked
binding affinity ratio (ratio to standard peptide) (HLA-A*0201 (human) [1]): 0.0001

B63: … (PAP position 144, 10-mer) (peptide)
peptide: HTVPLSEDQL
modifications: not checked
binding affinity ratio (HLA-A*0201 (human) [6]): 0.0002

B64: PAP peptide …, position 297, 10 amino acids (peptide)
peptide: QMALDVYNGL
modifications: not checked
binding affinity ratio (ratio to standard peptide) (HLA-A*0201 (human) [1]): 0.0002

Further lines, results first:

binding affinity ratio (HLA-A*0201 (human) [3]): 0.0003
B3: … (PSA, position 171, 9 amino acids) (peptide)
peptide: DLHVISNDV
modifications: not checked

binding affinity ratio (HLA-A*0201 (human) [3]): 0.0002
B5: … (PAP, position 201, 9 amino acids) (peptide)
peptide: DLFGIWSKV
modifications: not checked

binding affinity ratio (IC50 of standard peptide / IC50 of test peptide) (HLA-A*0201 (human) [4]): 0.0002
B6: … (PSA, position 43) (peptide)
peptide: RAVCGGVLV
modifications: not checked

binding affinity ratio (HLA-A*0201 (human) [3]): 0.0001
B7: … (PSM, position 641, 10 amino acids) (peptide)
peptide: EIASKFSERL
modifications: not checked

binding affinity ratio (HLA-A*0201 (human) [2]): 0.0002
B9: … (PSA, position 59) (peptide)
peptide: AAHCIRNKSV
modifications: not checked

binding affinity ratio (IC50 of standard peptide / IC50 of test peptide) (HLA-A*0201 (human) [4]): 0.0002
B11: … (PAP, position 287) (peptide)
peptide: SAHDTTVSGL
modifications: not checked

binding affinity ratio (IC50 of standard peptide / IC50 of test peptide) (HLA-A*0301 (human)): 0.4
B12: … (PSM, position 491) (peptide)
peptide: KSLYESWTK
modifications: not checked

binding affinity ratio (HLA-A*0201 (human) [2]): 0.0002
B14: … (PSM, position 741) (peptide)
peptide: AAAETLSEV
modifications: not checked

binding affinity ratio (HLA-A*0201 (human) [2]): 0.0002
B16: … (PAP, position 227) (peptide)
peptide: ATEDTMTKL
modifications: not checked

binding affinity ratio (HLA-A*0201 (human) [6]): 0.0001
B19: … (PSM position 252, 10-mer) (peptide)
peptide: GVQRGNILNL
modifications: not checked

binding affinity ratio (IC50 of standard peptide / IC50 of test peptide) (HLA-A*0201 (human) [4]): 0.0001
B20: … (PSM, position 673) (peptide)
peptide: RAFIDPLGL
modifications: not checked

binding affinity ratio (IC50 of standard peptide / IC50 of test peptide) (HLA-A*0301 (human)): 0.007
B22: … (PSA, position 99) (peptide)
peptide: MSLLKNRFLR
modifications: not checked

binding affinity ratio (HLA-A*0201 (human) [2]): 0.0002
B24: … (PSA, position 13) (peptide)
peptide: AAPLILSRI
modifications: not checked

binding affinity ratio (HLA-A*0201 (human) [3]; [7]): 0.0003
B27: … (PSA, position 136, 9 amino acids) (peptide)
peptide: DLPTQEPAL
modifications: not checked

binding affinity ratio (HLA-A*0201 (human) [2]): 0.0002
B30: … (PSA, position 181) (peptide)
peptide: AQVHPQKVT
modifications: not checked

binding affinity ratio (IC50 of standard peptide / IC50 of test peptide) (HLA-A*0301 (human)): 0.0003
B31: … (PSM, position 646, 10 amino acids) (peptide)
peptide: FSERLQDFDK
modifications: not checked

binding affinity ratio (HLA-A*0201 (human) [3]): 0.0001
B35: … (PSA, position 130, 10 amino acids) (peptide)
peptide: DAVKVMDLPT
modifications: not checked

binding affinity ratio (IC50 of standard peptide / IC50 of test peptide) (HLA-A*0201 (human) [4]): 0.0006
B36: … (PAP, position 180) (peptide)
peptide: RLHPYKDFI
modifications: not checked

binding affinity ratio (IC50 of standard peptide / IC50 of test peptide) (HLA-A*0201 (human) [4]): 0.0003
B37: … (PSA, position 121) (peptide)
peptide: RLSEPAELT
modifications: not checked

binding affinity ratio (HLA-A*0201 (human) [3]): 0.0001
B38: … (PSA, position 98, 10 amino acids) (peptide)
peptide: DMSLLKNRFL
modifications: not checked

binding affinity ratio (IC50 of standard peptide / IC50 of test peptide) (HLA-A*0201 (human) [4]): 0.0001
B39: … (PSM, position 634) (peptide)
peptide: SAVKNFTEI
modifications: not checked

binding affinity ratio (HLA-A*0201 (human) [2]): 0.0008
B41: … (PSA, position 231) (peptide)
peptide: ALPERPSLYT
modifications: not checked

binding affinity ratio (HLA-A*0201 (human) [2]): 0.0005
B42: … (PAP, position 189) (peptide)
peptide: ATLGKLSGL
modifications: not checked

binding affinity ratio (HLA-A*0201 (human) [3]): 0.0001
B46: … (PSM, position 191, 10 amino acids) (peptide)
peptide: DMKINCSGKI
modifications: not checked

binding affinity ratio (HLA-A*0201 (human) [3]): 0.0001
B48: … (PSA, position 178, 11 amino acids) (peptide)
peptide: DVCAQVHPQKV
modifications: not checked

binding affinity ratio (HLA-A*0201 (human) [2]): 0.0002
B49: … (PSA, position 13) (peptide)
peptide: AAPLILSRIV
modifications: not checked

binding affinity ratio (HLA-A*0201 (human) [3]): 0.0002
B50: … (PSM, position 397, 9 amino acids) (peptide)
peptide: EIVRSFGTL
modifications: not checked

binding affinity ratio (HLA-A*0201 (human) [3]): 0.0002
B52: … (PSM, position 285, 10 amino acids) (peptide)
peptide: EAVGLPSIPV
modifications: not checked

binding affinity ratio (HLA-A*0201 (human) [3]): 0.0001
B54: … (PSA, position 171, 11 amino acids) (peptide)
peptide: DLHVISNDVCA
modifications: not checked

binding affinity ratio (IC50 of standard peptide / IC50 of test peptide) (HLA-A*0201 (human) [4]): 0.0001
B56: … (PSM, position 455) (peptide)
peptide: SIEGNYTLRV
modifications: not checked

binding affinity ratio (HLA-A*0201 (human) [2]): 0.0002
B57: … (PSM, position 13) (peptide)
peptide: ATARRPRWL
modifications: not checked

binding affinity ratio (IC50 of standard peptide / IC50 of test peptide) (HLA-A*0201 (human) [4]): 0.0001
B61: … (PSA, position 155) (peptide)
peptide: SIEPEEFLT
modifications: not checked

binding affinity ratio (HLA-A*0201 (human) [3]): 0.0002
B62: … (PAP, position 230, 9 amino acids) (peptide)
peptide: DTMTKLREL
modifications: not checked
